# Reference: a protein production outcome set (Wang et al. 2014)
# Experiment: label from the status in PepcDB records
row,Sequence,protein production
1,MPAGLVISAPASGVGKTTLTLALARAWRNRGLSVQCFKSGPDYIDPAFHAAATGRASVNVDSWAMDRGGIAHLVGRGADADVVLAEGSMGLFDGVAARGVSGTGATADIAEMLGWPVLLVIDPSGQAQTAAAIAAGLRDYRPGVRLAGVVLNRVASPRHEDLVRRALDDAGIAVFGALPRHAEISLPKRHLGLVQAEEQAEIGKLIDEAARFVAEHVDLDAVLQSAAAWAPQPAANGLNVTPPGQRIALARDAAFSFVYPHMLEAWRAAGADISTFSPLADEAPDASADVCWLPGGYPELHAGKIAANARFCSGLRAFAETRPVHGECGGYMVLGTALTDADGVRHEMAGLLGLETSFAKRRMHLGYRLAELAAPMPGHSPGARLRGHEFHYSTIAAQPDMPLAVVHDATGAVIAETGSRRGNATGTFFHLIAEDRLEHHHHHH,not failed
2,MPDMPPTETNAIQDRLPRTTNSVEDTMALGARIAQGLSPGAVVALYGDLGTGKTHFVKGVAQGLGLPPAEVRSPTFTILAVHDDGDRPLYHFDAYRVQTPDEFVELGFETYVHGDGLTCIEWAGRVADLLPADTVPLQFHHVAPSTRRITLGAPDSSSSEDDR,failed
3,AANPDIMYRLLIQSVVDYAIYLLTPEGIVANWNPGAQRAKGYRAEEIVGQHYSLFYTDAERAAGLPAFNLEQARSTGRFEETGARLRKDGTAFHAHVVIEAVYDDAGQLVGFAKVTRDISERHRQELELLQAKELAEQYSQEMAKLSQFLDSVIANIP,failed
4,MNPRLALALKLLEAGLVESAAIPVAQALERDPDDPRAHHLAGLIARRGGDGALALAAFTRGLAVAADDAPLRIERAGLLLDLGRAEEALADLAVALALAPDHQAVLSTQGRALIDLGRPGEALAPLRRARALAPDDVAPAHNLGRALLALDRPDEALPLLEAAVARAPGAIDPRADLAEALRRLDRPGDAAQLLRAVLADAPGRADLADALAGALLAAGAVDESVAVLRASLDKAPTHGAGWVNLAAALIETGALDEATAAADRALALDPDDADAKVNRAFARCLADDYEQGFADYAHRWRTAAFQRPYPPVTAPPWAGEPLGEGTLLVRGEQGLGDQIMAARFLPWLSKRPDRPRRIVFECHPCLHRLLAEGLEAGIDLLAMGRPPPPVAAWIGALDLARMAGVTAGVMPVDVPYLKARPPVPPLAPPLPPGGRGRLGLVWAGKTRPRDRSCPLEPLAGLCVDQGWTVHALQLGPRRADLAGLPAGLGVIDEGDRLGDMAATASVMAGLDLVVAVDTAVAHLAGALGLPCALLLLATPDWRWGQKASRTVWYPSLRLFRQPHPGDWDGAFDAVRRAFAQGWPLS,failed
5,MSKGTTSQDAPFGTLLGYAPGGVAIYSSDYSSLDPQEYEDDAVFRSYIDDEYMGHKWQCVEFARRFLFLNYGVVFTDVGMAWEIFSLRFLREVVNDNILPLQAFPNGSPRAPVAGALLIWDKGGEFKDTGHVAIITQLHGNKVRIAEQNVIHSPLPQGQQWTRELEMVVENGCYTLKDTFDDTTILGWMIQTEDTEYSLPQPEIAGELLKISGARLENKGQFDGKWLDEKDPLQNAYVQANGQVINQDPYHYYTITESAEQELIKATNELHLMYLHATDKVLKDDNLLALFDIPKILWPRLRLSWQRRRHHMITGRMDFCMDERGLKVYEYNADSASCHTEAGLILERWAEQGYKGNGFNPAEGLINELAGAWKHSRARPFVHIMQDKDIEENYHAQFMEQALHQAGFETRILRGLDELGWDAAGQLIDGEGRLVNCVWKTWAWETAFDQIREVSDREFAAVPIRTGHPQNEVRLIDVLLRPEVLVFEPLWTVIPGNKAILPILWSLFPHHRYLLDTDFTVNDELVKTGYAVKPIAGRCGSNIDLVSHHEEVLDKTSGKFAEQKNIYQQLWCLPKVDGKYIQVCTFTVGGNYGGTCLRGDESLVIKKESDIEPLIVVKK,failed
6,MEVKMPFVVFVKRSVRFPGKHSYMIGGKSLLEIIVSKLSNIGKVYVFTKDKDIICNGCSIEFDTTNGIITDSVLAAIDKFGTFFAVAGDMPLIKPELVSKMLSQYKGSPLFPRHMDGMLEPLFGIYTEDLYNALKEYLDKGGESLHAFLLTQPLQYYDIGSDDEVNFININYKSDIEKYRDLLVQLLEHHHHHH,not failed
7,MKSNDLVDQIMAQVIAKVSEHAPASSAQPSHAQPSYKQRDTAMAEKTCSLTEFVGTAIGDTVGLVIANVDSALLDAMKLEKRYRSIGILGARTGAGPHIMAADEAVKATNTEVVSIELPRDTKGGAGHGSLIIFGGDDVSDVKRAVEVALKELDRTFGDVYANEAGHIELQYSARASHALEKAFGTPLGRSCGVIVGAPASIGVLMADTAVKSANVDVVAYSSPAQGTSFSNEVILVISGDSGAVRQAVISAREIGKTVLATLGAEPKNDRPSYI,failed
8,MLRFAVLGHPVAHSLSPAMHAFALESLGLEGSYEAWDTPLEALPGRLKEVRRAFRGVNLTLPLKEAALAHLDWVSPEAQRIGAVNTVLQVEGRLFGFNTDAPGFLEALKAGGIPLKGPALVLGAGGAGRAVAFALREAGLEVWVWNRTPQRALALAEEFGLRAVPLEKAREARLLVNATRVGLEDPSASPLPAELFPEEGAAVDLVYRPLWTRFLREAKAKGLKVQTGLPMLAWQGALAFRLWTGLLPDPSGMEEAARRALGV,not failed
9,DPAVLLDRAGRVIHLNAAAAQLAPALRVRELAQFALRSPEIVTALREAIATSEPRRVTYLDHGSIERWLELIIAPVQVPTAFGGTDQCMLMTFHDLTPLRRVEEMRADFVANASHELRTPLAALSGFIDTLQGQAR,failed
10,MSLTLRVVPELYCFDINVSQSFFVDVLGFEVKYERPDEEFVYLTLDGVDVMLEGIAGKSRKWLSGDLEFPLGSGVNFQWDVIDIEPLYQRVNESAADSIYLALESKSYQCGDSIATQKQFMVQTPDGYLFRFCQDIHEGHHHHHH,not failed
11,MKNPAEIDVADQQRLESMAVGGLIGFRTLLYKEVLRFWKVSFQTVAAPVLTAVLYLLIFGHVLEDRVRVYDQISYTAFLVPGLVMMSVLQNAFANSSSSLIQSKITGNLVFILLPPLSHWEMFGAYVVASIIRGLCVGLGVLLVTAWFANLHFAHIGWILVFGLMGAGILGTLGLIAGIWAEKFDQLAAFQNFLIMPATFLSGVFYSIHSLPAFWQAVSHANPFFYMIDGFRYGFFGVSDVPPLQSLAVVVVAFVVLAALALRLLRNGYKLRY,failed
12,MTVSHHNASTARFYALRLLPGQEVFSQLHAFVQQNQLHAAWIAGCTGSLTDVALRYAGQEATTSLTGTFEVISLNGTLELTGEHLHLAVSDPYGAMLGGHMMPGCTVRTTLELVIGELPALTFSRQPCAISGYDELHISSRLEHHHHHH,not failed
13,MPSIKIRENEPFEIAIRRFKRACEKAGVLSEVRRREYYEKPTEERKRKAAAAIKRHLKKLSRERFALQNLRKGRPQQLEHHHHHH,not failed
14,MMNYRKADMKDISLLVSIRKRQLIDEGIEPNIDIDKELTRYFNNKLANNLLVEWIAEENNQIIATAAIAFIDFPPTYTNKTGRKGYITNMYTEPTSRGNGIATGMLDRLVNEAKERNIHKICLVASKLGRPVYKKYGFQDTDEWLELNLLEHHHHHH,failed
15,PLAGTITEADVRRYAASCCVQGVTTITDLHNDLADPTIEVYRSATSQADFGVRLVPALAAVSHTPEQAIAKLETLRGHASDKLHYGIVKLVVDGSIQGFTARLRWPGYHNGAANGLWYIAPEELPRLVEAYHRAGVQLHIHTNGDEATEVALDAIEAAQTVAPRPDHRHTLQHCQMASAAQFRRMKNLGVCANLFANHLYYWGDAHYELTMGPERAARLDATGTAQRIGVPFAIHSDAPVTPLAPLFTAWCAVNRVSSSGRVLGRDTEALTTEQALAAITIGAAYTLKMDHLVGSIETGKYADFVVLDEDPLAVPPERLKEIAVWGTVVGG,failed
16,MRASSSQGTPMNTALHDNREVVTVCLQHKVLDGSPGTPAAQPPRWKQALLTYLVICPMTMVIPQLLAPLFARFPQLGGVITGNLIVNLFVILPVVFYIMPWVTRRCANWLRG,failed
17,MRFDKSCQARAPSAPDGPGVLRFTIFRGEAKKRKAAVSVAGRFCAVACFLRLGSAGLSRCPCYFSPMLERRIVVAVPARDEGAGVVATLRALAAQEGAPPFQTLLLVNNSRDDTAAQARAFARQMPGFRLQVEEVALPPREANVVGARRAALDWAAALAGSDGIIVSTDADTQAAPDWLAALVQPLCANRAVQASAGRILLRATERAALPEPVRRTYLLDTGYRDAASRLRARVLPDPFDPAPRHWQHFGASLALRVSAYRAVGGVPQVPCLEDLALVRALARADLPLRHTPRARVYTSARLCGRVPVGLSTQLGEWARGPQHWRVPGGAEVLRLAQAEAALRRSWQARRLAPKLTAQWLTSEAALGAALHAPRWGLALERAHEVREAEGRWQRTFAPIPVWDALQEVRALLSTLPEERPLTAEVCAP,failed
18,MRLPGSGYSYTVIQSKNNYSQKSSFGISFVILSRGTKIFREDLFEFLSNFDFIREIISIEKQSNRSSLQFISESYGKLKFILLSDDLNSGEKVNLAMKESSCDFVFVLQSDMYLLNPFWIPNIFDEIVKKNVLLVGGEFFDKEEEMIPSIFLPSIDKKQKFKVILVNSEKDYEKTLITMDYCGLYSKEKFLQLGGFDARIQNEYFQRIDFGLRAIYFGEHVYIYRKLRIQYTALNSPENLTKSKSFLIFLLKNYVPIFVGNGVVFSFLRFCKICLKYKINPFLFQKEFKEIKGEITKNSLRFKGDLKSAIELWENDIID,failed
19,MSQYVVCALYKFVELNNYQELREPLLALMEKHHIRGTLLLAGEGINGTVASDRAGIDTLLEWLNTEPRLTGTVYKESYSETQPFNRTKVKLKKEIVTLGVEGIDPRHVVGTYVKPQDWNDLIADPEVFVVDTRNDYEIEIGTFKGAVNPNTETFREFPDYVKENMDPAKHKKVAMFCTGGIRCEKSTAYMKEQGFEEVYHLEGGILKYLEEVPQEESMWEGDCYVFDGRVAVNHQLEKADYDLCNACRLPITDEDKQSELFEQGVSCPKCHGKHSEEQVERFREREKQVSLANQRGEQHVGGESAKQRAQRREAKLAKKAAQRKQA,failed
20,EMVDDQAMNEQLYYYFDPGDFKPPLVVYFSGFRLALGVEGANMMRALEAPALIFGEQRILGGSFYVGSKKFEQEIVRIIQTTLKKLGFTANQLVLSGLSMGTYASLYY,failed
21,LRSNRVTQHPPLQLSLPVHLPDDETFTSYYPAAGNDELIGALKSAASGDGVQAIYLWGPVKSGRTHLIHAACARANELERRSFYIPLGIHASISTALLEGLEQFDLICIDDVDAVAGHPLWEEAIFDLYNRVAEQKRGSLIVSASASPMEAGFVLPDLVSRMHWGLTYQLQPMMDDEKLAALQRRAAMRGLQLPEDVGRFLLNRMARDLRTLFDVLDRLDKASMVHQRKLTIPFVKEMLRL,not failed
22,MSENKKKFDKKGAKNMDEISKTLFAPIYPIIAENIINRFGITAGTCIDIGSGPGALSIALAKQSDFSIRALDFSKHMNEIALKNIADANLNDRIQIVQGDVHNIPIEDNYADLIVSRGSVFFWEDVATAFREIYRILKSGGKTYIGGGFGNKELRDSISAEMIRKNPDWKEFNRKNISQENVERFQNVLDEIGISSYEIILGDEGFWIIISKTDQEVI,not failed
23,MANYYEPPASGNRRDAVKGYNSGSFDDSAGDQSQTNDYQLKIKKSKSVPNADRAASRSWSFSDPESRRKRRVAGYKVYSVEQKMKGSIRKSFKWFKDIIGIS,failed
24,MKIGIIGAGFVARAIAKLALQNGHQVMLSNSRDPQSLFSLRPMIGCDIGTATQAALFGDIIVIAVPFTAIDKLPEQALQGKSVIDAVNYYTERDGKVAALDTRSTTTSELLAGYLPGAKITKAFNAITMTQLERDGLPAGSAHRRALPLAGDHEQEKTIVAELYDAFGFDVVDAGKLSEGWRFERNMPSYCVRMTKAELTTALALSSRLEHHHHHH,not failed
